± gives the uncertainty stated by the source.
B1: Double-stranded RNA-binding protein Staufen homolog 1, residues 183 to 249; numbered along this chain, O95793 (parent)
chain: KSEISQVFEIALKRNLPVNFEVARESGPPHMKNFVTKVSVGEFVGEGEGKSKKISKKNAAIAVLEEL
B2: DnaJ homolog subfamily C member 5, residues 16 to 77; numbered along this chain, Q9H3Z4 (parent)
chain: LYHVLGLDKNATSDDIKKSYRKLALKYHPDKNPDNPEAADKFKEINNAHAILTDATKRNIYD

Variants of: B1
Assay: abundance fitness (aPCA) (normalised: wild type 0, dead -1); higher = more abundant; growth selection in yeast, the domain comes from the species named
Conditions: Homo sapiens

Variant | abundance fitness
KSEISQVFEIALKRNLPVNFEVARESGPPHMKNFVTKVSVGEFVGEGEGKSKKISKKNAAIAWLEEL [V63W] | -0.818 ± 0.07
KSEISQVFEIALKRNLPVNFEVARESGPPHMKNFVTKVSVGEFVGEGEGKSKKISKKNAAIAVWEEL [L64W] | -0.67 ± 0.077
KSEISQVFEIALKRNLPVNFEVARESGPPHMKNFVTKVSVGEFVGEGEGKSKKISKKNAAIAVNEEL [L64N] | -0.423 ± 0.094
KSEISQVFEIALKRNLPVNFEVARESGPPHMKNFVTKVSVGEFVGEGEGKSKKISKKNAAIAVDEEL [L64D] | -0.492 ± 0.075
KSEISQVFEIALKRNLPVNFEVARESGPPHMKNFVTKVSVGEFVGEGEGKSKKISKKNAAIAVIEEL [L64I] | -0.584 ± 0.12
KSEISQVFEIALKRNLPVNFEVARESGPPHMKNFVTKVSVGEFVGEGEGKSKKISKKNAAIAVYEEL [L64Y] | -0.713 ± 0.091
KSEISQVFEIALKRNLPVNFEVARESGPPHMKNFVTKVSVGEFVGEGEGKSKKISKKNAAIAVSEEL [L64S] | -0.475 ± 0.043
KSEISQVFEIALKRNLPVNFEVARESGPPHMKNFVTKVSVGEFVGEGEGKSKKISKKNAAIAVPEEL [L64P] | -0.454 ± 0.053
KSEISQVFEIALKRNLPVNFEVARESGPPHMKNFVTKVSVGEFVGEGEGKSKKISKKNAAIAVFEEL [L64F] | -1.15 ± 0.16
KSEISQVFEIALKRNLPVNFEVARESGPPHMKNFVTKVSVGEFVGEGEGKSKKISKKNAAIAVVEEL [L64V] | -0.5 ± 0.05
KSEISQVFEIALKRNLPVNFEVARESGPPHMKNFVTKVSVGEFVGEGEGKSKKISKKNAAIAVQEEL [L64Q] | -0.448 ± 0.056
KSEISQVFEIALKRNLPVNFEVARESGPPHMKNFVTKVSVGEFVGEGEGKSKKISKKNAAIAVGEEL [L64G] | -0.44 ± 0.05
KSEISQVFEIALKRNLPVNFEVARESGPPHMKNFVTKVSVGEFVGEGEGKSKKISKKNAAIAVAEEL [L64A] | -0.473 ± 0.049
KSEISQVFEIALKRNLPVNFEVARESGPPHMKNFVTKVSVGEFVGEGEGKSKKISKKNAAIAVEEEL [L64E] | -0.433 ± 0.055
KSEISQVFEIALKRNLPVNFEVARESGPPHMKNFVTKVSVGEFVGEGEGKSKKISKKNAAIAVKEEL [L64K] | -0.472 ± 0.05
KSEISQVFEIALKRNLPVNFEVARESGPPHMKNFVTKVSVGEFVGEGEGKSKKISKKNAAIAVMEEL [L64M] | -0.218 ± 0.048
KSEISQVFEIALKRNLPVNFEVARESGPPHMKNFVTKVSVGEFVGEGEGKSKKISKKNAAIAVREEL [L64R] | -0.517 ± 0.042
KSEISQVFEIALKRNLPVNFEVARESGPPHMKNFVTKVSVGEFVGEGEGKSKKISKKNAAIAVCEEL [L64C] | -0.209 ± 0.13

Variant | abundance fitness
KSEISQVFEIALKRNLPVNFEVARESGPPHMKNFVTKVSVGEFVGEGEGKSKKISKKNAAIAVLETL [E66T] | -0.042 ± 0.049
KSEISQVFEIALKRNLPVNFEVARESGPPHMKNFVTKVSVGEFVGEGEGKSKKISKKNAAIAVLESL [E66S] | -0.005 ± 0.05
KSEISQVFEIALKRNLPVNFEVARESGPPHMKNFVTKVSVGEFVGEGEGKSKKISKKNAAIAVLENL [E66N] | -0.012 ± 0.082
KSEISQVFEIALKRNLPVNFEVARESGPPHMKNFVTKVSVGEFVGEGEGKSKKISKKNAAIAVLEGL [E66G] | -0.118 ± 0.043
KSEISQVFEIALKRNLPVNFEVARESGPPHMKNFVTKVSVGEFVGEGEGKSKKISKKNAAIAVLEPL [E66P] | -0.235 ± 0.051
KSEISQVFEIALKRNLPVNFEVARESGPPHMKNFVTKVSVGEFVGEGEGKSKKISKKNAAIAVLEWL [E66W] | -0.079 ± 0.077
KSEISQVFEIALKRNLPVNFEVARESGPPHMKNFVTKVSVGEFVGEGEGKSKKISKKNAAIAVLEML [E66M] | 0.111 ± 0.067
KSEISQVFEIALKRNLPVNFEVARESGPPHMKNFVTKVSVGEFVGEGEGKSKKISKKNAAIAVLECL [E66C] | -0.037 ± 0.13
KSEISQVFEIALKRNLPVNFEVARESGPPHMKNFVTKVSVGEFVGEGEGKSKKISKKNAAIAVLEQL [E66Q] | 0.138 ± 0.06
KSEISQVFEIALKRNLPVNFEVARESGPPHMKNFVTKVSVGEFVGEGEGKSKKISKKNAAIAVLEIL [E66I] | 0.097 ± 0.067
KSEISQVFEIALKRNLPVNFEVARESGPPHMKNFVTKVSVGEFVGEGEGKSKKISKKNAAIAVLERL [E66R] | 0.123 ± 0.043
KSEISQVFEIALKRNLPVNFEVARESGPPHMKNFVTKVSVGEFVGEGEGKSKKISKKNAAIAVLELL [E66L] | 0.114 ± 0.038
KSEISQVFEIALKRNLPVNFEVARESGPPHMKNFVTKVSVGEFVGEGEGKSKKISKKNAAIAVLEKL [E66K] | 0.216 ± 0.056
KSEISQVFEIALKRNLPVNFEVARESGPPHMKNFVTKVSVGEFVGEGEGKSKKISKKNAAIAVLEYL [E66Y] | 0.063 ± 0.069
KSEISQVFEIALKRNLPVNFEVARESGPPHMKNFVTKVSVGEFVGEGEGKSKKISKKNAAIAVLEVL [E66V] | 0.077 ± 0.04
KSEISQVFEIALKRNLPVNFEVARESGPPHMKNFVTKVSVGEFVGEGEGKSKKISKKNAAIAVLEHL [E66H] | -0.002 ± 0.085
KSEISQVFEIALKRNLPVNFEVARESGPPHMKNFVTKVSVGEFVGEGEGKSKKISKKNAAIAVLEFL [E66F] | 0.103 ± 0.11

Variants of: B2
Assay: as above
Conditions: Homo sapiens

Variant | abundance fitness
IYHVLGLDKNATSDDIKKSYRKLALKYHPDKNPDNPEAADKFKEINNAHAILTDATKRNIYD [L1I] | -0.084 ± 0.21
GYHVLGLDKNATSDDIKKSYRKLALKYHPDKNPDNPEAADKFKEINNAHAILTDATKRNIYD [L1G] | -0.539 ± 0.11
EYHVLGLDKNATSDDIKKSYRKLALKYHPDKNPDNPEAADKFKEINNAHAILTDATKRNIYD [L1E] | -0.14 ± 0.13
CYHVLGLDKNATSDDIKKSYRKLALKYHPDKNPDNPEAADKFKEINNAHAILTDATKRNIYD [L1C] | -0.284 ± 0.43
AYHVLGLDKNATSDDIKKSYRKLALKYHPDKNPDNPEAADKFKEINNAHAILTDATKRNIYD [L1A] | -0.124 ± 0.17
FYHVLGLDKNATSDDIKKSYRKLALKYHPDKNPDNPEAADKFKEINNAHAILTDATKRNIYD [L1F] | 0.197 ± 0.16

From the Human Domainome abundance scans (Beltran et al. 2025)
